Measured values as given in patent publication US20240309087A1 (SHANGHAI JUNSHI BIOSCIENCES, published 2024).

Assays:
[1] = molecular target: T1, human CD112R on Jurkat CD112R effector cells (human, UniProt Q6DKI7 1-326); assay: cell-based or functional assay
T1 sequence (looked up): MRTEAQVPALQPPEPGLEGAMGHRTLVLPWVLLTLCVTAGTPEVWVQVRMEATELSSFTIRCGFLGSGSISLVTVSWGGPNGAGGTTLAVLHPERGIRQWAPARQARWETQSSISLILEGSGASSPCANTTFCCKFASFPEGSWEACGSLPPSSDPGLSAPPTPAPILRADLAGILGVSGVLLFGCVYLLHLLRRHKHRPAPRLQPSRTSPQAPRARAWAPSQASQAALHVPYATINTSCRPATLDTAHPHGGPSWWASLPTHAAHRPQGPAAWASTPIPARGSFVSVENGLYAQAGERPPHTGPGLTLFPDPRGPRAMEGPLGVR

[2] = molecular target: T2, hCD112R mFC recombinant protein (human; murine, UniProt Q6DKI7 41-160); assay: ELISA, coated hCD112R-ECD-mFC
T2 construct: range 41-160; expressed in 293E cells; also called hCD112R ECD mFC; hCD112R-ECD-mFC; not shown: murine IgG2a Fc domain (MX2-mFc vector)
T2 sequence (looked up): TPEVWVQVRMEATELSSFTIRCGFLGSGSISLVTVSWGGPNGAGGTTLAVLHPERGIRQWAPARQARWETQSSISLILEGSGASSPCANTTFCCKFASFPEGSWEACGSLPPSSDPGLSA
Procedure: (§1) A plate was coated with a hCD112R-ECD-mFC protein (1.5 μg/mL) at a fixed concentration, and the humanized anti-CD112R antibodies diluted in a gradient (initial concentration: 1 μg/mL, 2.5-fold gradient dilution, 12 concentration gradients in total) were added to bind to the antigen. HRP-conjugated goat anti-human antibody IgG (Fc specific) (Sigma, A0170) was subjected to a 5000-fold dilution and used as a detection antibody for detection. The color development was performed with 0.1 mg/mL TMB, and finally stopped with 2 M hydrochloric acid. The plate was read at 420 nm/620 nm. EC₅₀ was obtained by fitting with a four-parameter logistic regression (4PL) model. The […] were COM701 (anti-CD112R antibody, Compugen, obtained by expression and purification according to the sequences in US20180280506A1) and the anti-KLH hu-IgG4 antibody.

[3] = molecular target: T2, hCD112R mFC recombinant protein; assay: FACS competition, hCD112R mFc on CHO CD112 cells
Procedure: (§2) Cells CHO CD112 overexpressing human CD112 were co-incubated with a hCD112R mFc protein solution (5 μg/mL) prepared in a staining buffer (PBS+1% FBS), and the humanized anti-CD112R antibodies or the control antibodies at different concentrations (initial concentration: 100 μg/mL, 3-fold dilution, 10 concentration gradients) at 4° C. for 30 min. Unbound antibodies were then washed with a staining buffer and the cells were incubated with 1% (v/v) goat anti-mouse IgG Fc fluorescent secondary antibodies (Jackson ImmunoResearch) prepared in a staining buffer at 4° C. for 30 min in the dark. Finally, the cells were collected by using a flow cytometer (BD Canto II), and the fluorescent antibodies bound to the cell surface were detected. Raw data were analyzed by using FlowJo to obtain MFI values, and a four-parameter curve fitting was performed by using GraphPad Prism software to obtain IC₅₀ values. The positive control and the negative control were COM701 (anti-CD112R antibody, Compugen, obtained by expression and purification according to the sequences in US20180280506A1) and the anti-KLH hu-IgG4 antibody, respectively.

[4] = molecular target: T2, hCD112R mFC recombinant protein; assay: ELISA, coated hCD112R-ECD-mFC; EC50 COM701/EC50 antibody
Procedure: as §1

[5] = molecular target: T2, hCD112R mFC recombinant protein; assay: FACS competition, hCD112R mFc on CHO CD112 cells; IC50 COM701/IC50 antibody
Procedure: as §2

Binder	EC50, CD112R/CD112 reporter [1] [µg/mL]	Relative activity (%), EC50 COM701/EC50 antibody [1] [%]	EC50 [2] [µg/mL]	IC50 [3] [µg/mL]	Relative activity (%) [4] [%]	Relative activity (%) [5] [%]
Hu5 (antibody, IgG4, V domains shown, humanized IgG4; also called Hu-05) VH: EVQLVESGGGLVQPGGSLRLSCAASGFTFSSYHMSWVRQAPGKGLELVAAINSNDINTYYLDTVKGRFTISRDIAKNSLYLQMNSLRAEDTAVYYCARHEDYYGFAMDYWGQGTLVTVSS VL: DIQMTQSPSSLSASVGDRVTITCKASQSVSNDVAWYQQKPGKAPKLLIYYVSNRFTGVPSRFSGSGSGTDFTLTISSLQPEDFATYFCQQAYRSPWTFGQGTKLEIK	0.0461	148	0.00275	4.41	155	90.2
Hu51 (antibody, IgG4, V domains shown, humanized IgG4) VH: EVQLVESGGGLVKPGGSLRLSCAASGFTFSSYHMSWVRQAPGKGLELVSAINSNGINTYYLDTVKGRFTISRDNAKNSLYLQMNSLRAEDTAVYYCARHEDYYGFAMDYWGQGTLVTVSS VL: EIVMTQSPPTLSLSPGERVTLSCKASQSVSNDVAWYQEKPGQAPRLLIYYVSHRFTGIPARFSGSGSGTDFTLTISSLQPEDFAVYYCHQAYRSPWTFGQGTKLEIK	0.0225	332	0.00663	3.48	138	69.2
Hu53 (antibody, IgG4, V domains shown, humanized IgG4) VH: EVQLVESGGGLVKPGGSLRLSCAASGFTFSSYHMSWVRQAPGKGLELVSAINSNGINTYYLDTVKGRFTISRDNAKNSLYLQMNSLRAEDTAVYYCARHEDYYGFAMDYWGQGTLVTVSS VL: DIQMTQSPSSLSASVGDRVTITCKASQSVSNDVAWYQQKPGKAPKLLIYYVSNRFTGVPSRFSGSGSGTDFTLTISSLQPEDFATYFCQQAYRSPWTFGQGTKLEIK	0.023	314	0.00541	3.18	169	75.7
Hu26 (antibody, IgG4, V domains shown, humanized IgG4) VH: EVQLVESGGGLVQPGGSLRLSCAASGFTFSSYHMSWVRQAPGKGLELVAAISRDGDSTYYPDTVKGRFTISRDNAKNSLYLQMNSLRAEDTAVYYCSRHEDYFGFAMDSWGQGTLVTVSS VL: AIQMTQSPSSLSASVGDRVTITCKASQSVTNDVAWYQQKPGKAPKLLIYYVSNHYTGVPSRFSGSGSGTDFTLTISSLQPEDFATYFCQQAYRSPWTFGQGTKLEIK	0.0353	183	0.00351	2.47	190	145
Hu11 (antibody, IgG4, V domains shown, humanized IgG4) VH: EVQLVESGGGLVKPGGSLRLSCAASGFTFSSYHMSWVRQAPGKGLELVSAINSNDINTYYLDTVKGRFTISRDIAKNSLYLQMNSLRAEDTAVYYCARHEDYYGFAMDYWGQGTLVTVSS VL: DIQMTQSPSSLSASVGDRVTITCKASQSVSNDVAWYQQKPGKAPKLLIYYVSNRFTGVPSRFSGSGSGTDFTLTISSLQPEDFATYFCQQAYRSPWTFGQGTKLEIK	0.0529	148	0.00275	4.34	143	91.6
Hu14 (antibody, IgG4, V domains shown, humanized IgG4) VH: EVQLVESGGGLVKPGGSLRLSCAASGFTFSSYHMSWVRQAPGKGLELVSAISRDGDSTYYPDTVKGRFTISRDNAKNSLYLQMNSLRAEDTAVYYCSRHEDYFGFAMDSWGQGTLVTVSS VL: AIQMTQSPSSLSASVGDRVTITCKASQSVTNDVAWYQQKPGKAPKLLIYYVSNHYTGVPSRFSGSGSGTDFTLTISSLQPEDFATYFCQQAYRSPWTFGQGTKLEIK	0.0225	215	0.00443	2.21	129	162

More lines, now with the values ahead:

EC50, CD112R/CD112 reporter [1] [µg/mL]	Relative activity (%), EC50 COM701/EC50 antibody [1] [%]	EC50 [2] [µg/mL]	IC50 [3] [µg/mL]	Relative activity (%) [4] [%]	Relative activity (%) [5] [%]	Binder
0.0633	110	0.00309	4.62	127	86.1	Hu8 (antibody, IgG4, V domains shown, humanized IgG4; also called Hu-08) VH: EVQLVESGGGLVKPGGSLRLSCAASGFTFSSYHMSWVRQAPGKGLELVSAINSNDINTYYLDTVKGRFTISRDIAKNSLYLQMNSLRAEDTAVYYCARHEDYYGFAMDYWGQGTLVTVSS VL: AIQMTQSPSSLSASVGDRVTITCKASQSVTNDVAWYQQKPGKAPKLLIYYVSNHYTGVPSRFSGSGSGTDFTLTISSLQPEDFATYFCQQAYRSPWTFGQGTKLEIK
0.038	189	0.00355	4.24	120	93.9	Hu3 (antibody, IgG4, V domains shown, humanized IgG4; also called Hu-03) VH: EVQLVESGGGLVQPGGSLRLSCAASGFTFSSYHMSWVRQAPGKGLELVAAINSNDINTYYLDTVKGRFTISRDIAKNSLYLQMNSLRAEDTAVYYCARHEDYYGFAMDYWGQGTLVTVSS VL: EIVMTQSPPTLSLSPGERVTLSCKASQSVSNDVAWYQEKPGQAPRLLIYYVSHRFTGIPARFSGSGSGTDFTLTISSLQPEDFAVYYCHQAYRSPWTFGQGTKLEIK
0.0243	276	0.00475	3.39	193	71	Hu56 (antibody, IgG4, V domains shown, humanized IgG4) VH: EVQLVESGGGLVQPGGSLRLSCAASGFTFSSYHMSWIRQAPGKGLELVAAINSNGINTYYLDTVKGRFTISRDNAKNSLYLQMNSLRAEDTAVYYCARHEDYYGFAMDYWGQGTLVTVSS VL: AIQMTQSPSSLSASVGDRVTITCKASQSVTNDVAWYQQKPGKAPKLLIYYVSNHYTGVPSRFSGSGSGTDFTLTISSLQPEDFATYFCQQAYRSPWTFGQGTKLEIK
0.038	135	0.00518	2.25	128	159	Hu20 (antibody, IgG4, V domains shown, humanized IgG4) VH: EVQLVESGGGLVKPGGSLRLSCAASGFTFSSYHMSWVRQAPGKGLELVSAISRDGDSTYYPDTVKGRFTISRDDAENSLYLQMNSLRAEDTAVYYCSRHEDYFGFAMDSWGQGTLVTVSS VL: AIQMTQSPSSLSASVGDRVTITCKASQSVTNDVAWYQQKPGKAPKLLIYYVSNHYTGVPSRFSGSGSGTDFTLTISSLQPEDFATYFCQQAYRSPWTFGQGTKLEIK
